Laboratory results: patent US20200148778A1 (JIANGSU HENGRUI MEDICINE, published 2020)

Tests used:
[1] = target: T1, His-tagged human CD40 (h-CD40-his) recombinant protein (human, UniProt P25942 21-193); test: ELISA, human CD40-his coated
T1 construct: range 21-193; Bought from Acrobiosystems; also called Human CD40-his; not shown: His tag
Method: (§1) Binding properties of anti-CD40 antibodies was detected by ELISA assay. The CD40 recombinant protein with his-tag was directly used for coating, after the antibody was added, the binding activity of the antibody to the antigen—was detected by adding a secondary antibody (HRP-conjugated anti-antibody Fc antibody) and HRP substrate TMB.
(§2) A 96-well microtiter plate was coated with 100 μl/well of human or rhesus CD40-his protein at a concentration of 0.5 μg/ml and incubated overnight at 4° C. The plate was rinsed three times with rinsing buffer, 250 μl per well. For each rinsing, the plate was shaken for 10 seconds to ensure sufficient cleaning. 200 μl blocking solution was added in each well and incubated for 2 hours at room temperature. Then the plate was washed three times with 250 μl per well. The plate was shaken for 10 seconds in each rinsing to ensure sufficient cleaning. 100 μl of anti-CD40 antibody to be tested diluted in dilution was added to each well, and incubated for 1 hour at room temperature, then rinsing the plate for three times with 250 μl of rinsing buffer per well. 100 μl of HRP-labeled goat anti-human IgG secondary antibody diluted 1:20000 with diluent was added to each well, and incubated for 1 hour at room temperature. Then the plate was washed three times with 250 μl per well. 100 μl of TMB was added to each well and allowed to react for 15 minutes in the dark. 50 μl of 0.16 M sulfuric acid per well was added. The OD value was measured at 450 nm by Thermo MpμltiSkanFc plate reader and the binding EC50 value of the CD40 antibody to […] was calculated.

[2] = target: T1, His-tagged human CD40 (h-CD40-his) …; test: Biacore X100, antibody captured by anti-human antibody on CM5 chip, CD40 antigen as analyte, 1:1 model
Source text: (§3) Human antibody captured antibody was covalently coupled to CM5 biosensor chip of Biacore instrument (Biacore X100, GE) according to the method described in the description of Human Antibody Capture Kit (Cat. BR-1008-39, GE), thereby capturing a certain amount of chimeric or humanized antibodies to be tested based on affinity. Then a series of concentration gradient CD40 antigens (purchased from Acrobiosystems) flowed through the surface of chip, and Biacore X100 (GE) was used to detect the reaction signals in real time to obtain the binding and dissociation curves. After the completion of each cycle of dissociation, the biochip was rinsed and regenerated with the regeneration solution provided by the Human Antibody Capture Kit. Amine Coupling Kits (Cat. BR-1000-50, GE) were purchased from GE, and the buffer solution HBS-EP+buffer 1× (pH 7.4), which was obtained from HBS-EP+buffer 10× (Cat. BR-1006-69, GE) by dilution with D. I. Water.

[3] = target: T2, His-tagged rhesus CD40 (rhesus-CD40-his) recombinant protein (rhesus, UniProt F6SNI1 21-193); test: ELISA, rhesus CD40-his coated
T2 construct: range 21-193; Bought from Acrobiosystems (# CD0-052H7); not shown: His tag
Method: as §1, §2

[4] = target: T1, His-tagged human CD40 (h-CD40-his) …; test: Biacore, affinity to human CD40
Source text: as §3

[5] = target: human CD40 on HEK293 cells stably transfected with the human CD40 gene (HEK-Blue CD40L cells) (human, UniProt P25942 21-277); test: cell-based or functional assay
[6] = target: T3, His-tagged mouse CD40 (m-CD40-his) recombinant protein (mouse, UniProt P27512 24-193); test: ELISA, CD40-his coated
T3 construct: range 24-193; Bought from Acrobiosystems; also called Mouse CD40-his; not shown: His tag
T3 sequence (P27512 24-193 limits assumed): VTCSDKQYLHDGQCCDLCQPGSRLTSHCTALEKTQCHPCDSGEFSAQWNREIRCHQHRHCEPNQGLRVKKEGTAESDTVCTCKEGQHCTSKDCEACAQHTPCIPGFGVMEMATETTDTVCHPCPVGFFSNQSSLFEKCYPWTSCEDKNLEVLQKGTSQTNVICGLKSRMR

T1 sequence (P25942 21-193 limits assumed): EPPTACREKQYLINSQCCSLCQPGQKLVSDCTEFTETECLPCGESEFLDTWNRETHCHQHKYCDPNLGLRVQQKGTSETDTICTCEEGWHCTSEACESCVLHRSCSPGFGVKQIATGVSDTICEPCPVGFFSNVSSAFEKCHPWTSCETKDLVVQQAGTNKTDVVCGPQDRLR
human CD40 on HEK293 cells stably transfected with the human CD40 gene (HEK-Blue CD40L cells), sequence (P25942 21-277): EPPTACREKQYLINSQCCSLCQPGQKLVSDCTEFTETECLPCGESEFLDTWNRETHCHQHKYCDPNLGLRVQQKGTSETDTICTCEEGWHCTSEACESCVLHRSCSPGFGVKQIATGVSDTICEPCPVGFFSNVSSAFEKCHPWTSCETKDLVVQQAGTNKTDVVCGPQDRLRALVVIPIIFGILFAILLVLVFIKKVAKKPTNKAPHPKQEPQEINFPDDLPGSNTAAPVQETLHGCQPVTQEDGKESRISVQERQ

Binder	EC50 [1]	Kd [2]	EC50 [3]	fold of affinity against the Alligator reference [4]	fold of affinity against the Pfizer reference [4]	HEK293-CD40L cells activity assay EC50 [5]	binding result [6]
mouse hybridoma anti-human CD40 antibody 14C10 (antibody, V domains shown, Murine hybridoma antibody) VH: QVQVQQSGAELVRPGTSVKVSCKASGYAFTNYLIEWVKQRPGQGLEWIGVINPEFGGTNYNEKFKGKATLTADKSSSTAYMQLSSLTSEDSAVYFCARGGGGFTYWGQGTLVTVSA VL: HIQMTQTTSSLSASLGDRVTISCRASQDISSHLNWYQQKPDGTVKLLISYTSRLHSGVPSRFSGSGSGADYSLTISNLEQEDIATYFCQQGNTLPWTFGGGTKLEIK	8.81 ng/mL		9.49 ng/mL			10.9 ng/mL	no binding
mouse hybridoma anti-human CD40 antibody 1D9 (antibody, V domains shown, Murine hybridoma antibody) VH: QVRLQQSGAELVRPGTSMRVSCKASGYAFTNYLINWVKQRPGQGLEWIGILNPGSGGTNYNENFKDKATLTADKSSNTAYMQLSSLTSEDSAVYFCIRGSPGFAYWGQGTLVTVSA VL: DIQMTQTTSSLSASLGDRVTISCRASQDINIYLNWYQQKPDGTVKLLIYSTSGLHSGVPSRFNGSGSGTDYSLTISNLEQEDIATYFCQQGYTLPYTFGGGTKLEIK	10 ng/mL		9.81 ng/mL			14.5 ng/mL	no binding
humanized anti-CD40 antibody hu2H6 (H1b heavy chain and L1c light chain) (antibody, human IgG1, kappa, V domains shown, the suffix -11 is not explained; Human IgG1/kappa; also called Hu2H6-11) VH: QVQLVQSGAEVKKPGSSVKVSCKASGYAFSDYLIEWVRQAPGQGLEWMGVINPGSGGSNYNEKIKDRVTLTADKSTSTAYMELSSLRSEDTAVYYCARGGGGFTYWGQGTLVTVSS VL: DIQLTQSPSSLSASVGDRVTITCRASQDISNYLNWYQQKPGKTIKLLLNFASRLHSGVPSRFSGSGSGTDFTFTISSLQPEDIATYYCQQGSTLPWTFGGGTKVEIKR	3.68 ng/mL	11.2 nM	2.95 ng/mL				
mouse hybridoma anti-human CD40 antibody 9E5 (antibody, V domains shown, Murine hybridoma antibody; also called mouse 9E5) VH: QVQLQQPGADLVKPGASVKMSCKASGYILTTYWITWVKQRPGQGLEWIGDIHPGSGSTKYNEKFKSKATLTVDTSSSTAYMQLTRLSSEDSAVYYCARRDYWGQGTTLTVSS VL: DVLMTQSPLSLPVSLGDQASISCRSSQNIVNSQGNTYLEWYLQKPGESPKLLIYKVTNRFSGVPDRFSGSGSGTDFTLKISRVEAEDLGVYYCFQASLVPWTFGGGTKLEIK	6 ng/mL		6.7 ng/mL			17.1 ng/mL	no binding
human-mouse chimeric antibody 9E5-C (antibody, V domains shown, Variable regions of murine 9E5 ligated to the constant region of human antibody IgG1; made in HEK293 cells) VH: QVQLQQPGADLVKPGASVKMSCKASGYILTTYWITWVKQRPGQGLEWIGDIHPGSGSTKYNEKFKSKATLTVDTSSSTAYMQLTRLSSEDSAVYYCARRDYWGQGTTLTVSS VL: DVLMTQSPLSLPVSLGDQASISCRSSQNIVNSQGNTYLEWYLQKPGESPKLLIYKVTNRFSGVPDRFSGSGSGTDFTLKISRVEAEDLGVYYCFQASLVPWTFGGGTKLEIK	1.35 ng/mL	2.68 nM					

Other lines, results leading:

EC50 [1]	Kd [2]	EC50 [3]	fold of affinity against the Alligator reference [4]	fold of affinity against the Pfizer reference [4]	HEK293-CD40L cells activity assay EC50 [5]	binding result [6]	Binder
1.65 ng/mL	5.3 nM	1.66 ng/mL	9 times	3 times			humanized anti-CD40 antibody hu9E5 (H1c heavy chain and L1a light chain) (antibody, human IgG1, kappa, V domains shown, the suffix -25 is not explained; Human IgG1/kappa; also called Hu9E5-25) VH: QVQLVQSGAEVKKPGASVKVSCKASGYILTTYWITWVRQAPGQGLEWMGDIHPGSGSTKYNEKFKSRVTLTVDTSISTAYMELSRLRSEDTAVYYCARRDYWGQGTTVTVSS VL: DIVMTQSPLSLPVTPGEPASISCRSSQNIVNSQGNTYLEWYLQKPGQSPQLLIYKVTNRFSGVPDRFSGSGSGTDFTLKISRVEAEDVGVYYCFQASLVPWTFGGGTKVEIKR
7.06 ng/mL		7.21 ng/mL			15.1 ng/mL	no binding	mouse hybridoma anti-human CD40 antibody 2H6 (antibody, V domains shown, Murine hybridoma antibody; also called mouse mAb 2H6) VH: QVQLQQSGAELVRPGTSVKVSCKASGYAFSDYLIEWAKQRPGQGLEWIGVINPGSGGSNYNEKIKDRATLTADKSSSTAYMQLSSLTSEDSAVYFCARGGGGFTYWGQGTLVTVSA VL: EIQLTQTTSSLSASLGDRVTISCRASQDISNYLNWYQQKPDGTIKLLLNFASRLHSGVPSRFSGSGSGTDFFLTISNLEQDDIATYFCQQGSTLPWTFGGGTKLEIK
4.56 ng/mL	3.98 nM						human-mouse chimeric antibody 2H6-C (antibody, V domains shown, Variable regions of murine 2H6 ligated to the constant region of human antibody IgG1; made in HEK293 cells) VH: QVQLQQSGAELVRPGTSVKVSCKASGYAFSDYLIEWAKQRPGQGLEWIGVINPGSGGSNYNEKIKDRATLTADKSSSTAYMQLSSLTSEDSAVYFCARGGGGFTYWGQGTLVTVSA VL: EIQLTQTTSSLSASLGDRVTISCRASQDISNYLNWYQQKPDGTIKLLLNFASRLHSGVPSRFSGSGSGTDFFLTISNLEQDDIATYFCQQGSTLPWTFGGGTKLEIK
12.9 ng/mL		11.8 ng/mL			36.5 ng/mL	no binding	mouse hybridoma anti-human CD40 antibody 38B4 (antibody, V domains shown, Murine hybridoma antibody) VH: QVRLKQSGAELVRPGASVKVSCKASGYTFTDYYINWVKQRPGQGLEWIAGIYPGTGNTYYNEKFKGKATLTAERSSSTAYMQLTSLTSEDSAVYFCTRRGLPSLCFDYWGQGTTLTVSS VL: DFQMTQTTSSLSASLGDRVTISCSASQGISNYLNWYQQKPDGTVKLLIYYTSSLHSGVPSRFSGSGSGTDYSLTISNLEPEDIATYYCQQYSKLPPTFGGGTKLEIK
